{
  "source": "patent US20250326816A1",
  "about": "(KOREA UNIVERSITY RESEARCH AND BUSINESS FOUNDATION, published 2025)",
  "binders": {"B1": {"name": "Dimeric human ICOS (ICOS-Fc) (Fc fusion, UniProt Q9Y6W8 21-140, looked up)", "chain": "EINGSANYEMFIFHNGGVQILCKYPDIVQQFKMQLLKGGQILCDLTKTKGSGNTVSIKSLKFCHSQLSNNSVSFFLYNLDHSHANYYFCNLSIFDPPPFKVTLTGGYLHIYESQLCCQLK", "notes": "range 21-140; Fc at the C-terminus of ICOS to induce dimerization; Labeled with Alexa488 when used as probe in the flow cytometry on yeast; also called ICOS-Fc dimer protein; ICOS dimer protein; not shown: GS linker of glycine and serine; Fc region (domain) of human IgG antibody"}, "B2": {"name": "ICOS-L variant Y8_H57N (ligand)", "chain": "DTQEKEVRAMVGSDVELSCACPEGSRFDLNDVYVYWQTSESKTVVTYHIPPNSSLENVDSRYRNRALMSPAGMLRGDFSLRLFNVTPQDEQKFHCLVLSQSLGFQEVLSVEVTLHVAANFSVPVVSAPHSPSQDELTFTCTSINGYPRPNVYWINKTDNSLLDQALQNDTVFLNMRGLYDVVSVLRIARTPSVNIGCCIENVLLQQNLTVGSQTGNDIGERDKITENPVSTGEKNAAT", "notes": "H57 of Y8 put back to N"}, "B3": {"name": "ICOS-L variant Y8_P51Q (ligand)", "chain": "DTQEKEVRAMVGSDVELSCACPEGSRFDLNDVYVYWQTSESKTVVTYHIPQNSSLEHVDSRYRNRALMSPAGMLRGDFSLRLFNVTPQDEQKFHCLVLSQSLGFQEVLSVEVTLHVAANFSVPVVSAPHSPSQDELTFTCTSINGYPRPNVYWINKTDNSLLDQALQNDTVFLNMRGLYDVVSVLRIARTPSVNIGCCIENVLLQQNLTVGSQTGNDIGERDKITENPVSTGEKNAAT", "notes": "P51 of Y8 put back to Q; keeps N57H only"}},
  "key": {"[1]": {"target": "B1", "assay": "bio-layer interferometry (Octet R8), ICOS-Fc captured on Protein A biosensor, ICOS-L variant in solution; the table prints no units"}, "[2]": {"target": "B1", "assay": "ELISA, ICOS-Fc coated at 4 ug/ml, ICOS-L variant titrated, anti-His-HRP (x axis printed as PD-L1 CO…ON (nM))", "description": "(§1) After washing four times, 50 μl of an anti-His-HRP conjugate was added and reacted at room temperature for 1 hour, and then washed four times. Thereafter, 50 μl of a 1-Step Ultra TMB-ELISA substrate solution (Thermo Fisher Scientific, 34028) was added to develop color, and then added with 50 μl each of 2 M H₂SO₄ to terminate the reaction, and then analyzed using an Epoch microplate spectrophotometer (BioTek)."}, "[3]": {"target": "B1", "assay": "bio-layer interferometry (Octet R8); fold gain of KD over wild-type ICOS-L as printed in the table"}, "ICOS-L variant Y8_H57N": {"target": "B2", "assay": "bio-layer interferometry (Octet R8), ICOS-Fc captured on Protein A biosensor, ICOS-L variant in solution; the table prints no units"}, "ICOS-L variant Y8_P51Q": {"target": "B3", "assay": "bio-layer interferometry (Octet R8), ICOS-Fc captured on Protein A biosensor, ICOS-L variant in solution; the table prints no units"}, "wild-type ICOS-L": {"target": "T1, wild-type ICOS-L (Homo sapiens (Human), UniProt O75144 19-256)", "T1 construct": "also called wild-type Inducible Co-Stimulator-ligand", "T1 sequence": "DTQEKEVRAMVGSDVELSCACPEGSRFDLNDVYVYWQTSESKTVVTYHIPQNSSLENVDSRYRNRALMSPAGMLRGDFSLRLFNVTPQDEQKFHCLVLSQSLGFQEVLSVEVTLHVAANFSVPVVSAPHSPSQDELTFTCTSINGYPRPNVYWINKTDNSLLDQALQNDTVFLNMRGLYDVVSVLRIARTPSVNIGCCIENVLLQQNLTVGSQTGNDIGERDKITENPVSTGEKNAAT", "assay": "bio-layer interferometry (Octet R8), ICOS-Fc captured on Protein A biosensor, ICOS-L variant in solution; the table prints no units"}, "[4]": {"target": "B1", "assay": "ELISA, ICOS-Fc coated at 4 ug/ml, ICOS-L variant titrated, anti-His-HRP", "description": "as §1"}, "[5]": {"target": "T2, ATZ (H)-A184: ICOS-L A184 variant fused to the heavy chain of Atezolizumab with LALAPG mutation in the Fc … (Homo sapiens (Human), UniProt O75144 19-256)", "T2 construct": "Antibody-ligand fusion; ICOS-L at the C-terminal of the heavy chain; not shown: Atezolizumab heavy chain (VH plus IgG1 constant region with LALAPG), atezolizumab light chain, and any linker", "T2 chain": "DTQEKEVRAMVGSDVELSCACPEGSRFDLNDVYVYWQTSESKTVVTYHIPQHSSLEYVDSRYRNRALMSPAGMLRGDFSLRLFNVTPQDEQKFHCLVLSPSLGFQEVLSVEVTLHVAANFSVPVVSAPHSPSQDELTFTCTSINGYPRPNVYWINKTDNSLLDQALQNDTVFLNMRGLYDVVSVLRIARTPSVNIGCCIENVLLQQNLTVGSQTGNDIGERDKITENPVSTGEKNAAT", "assay": "sandwich ELISA, PD-L1-Fc coated at 40 nM, atezolizumab fusion captured at 200 nM, His-tagged ICOS monomer titrated, anti-His-HRP", "description": "(§2) Specifically, 50 μl of 40 nM PD-L1-Fc in 0.05 M Na₂CO₃ (pH 9.6) was dispensed into a Flat Bottom Polystyrene High Bind 96-well microplate (Costar), immobilized at 4° C. for 16 hours, and then blocked with 100 μl of PBS (pH 7.4) containing 0.5% bovine serum albumin (BSA) (Gibco) for 2 hours at room temperature. […] After washing four times, 50 μl of an anti-His-HRP conjugate was added and reacted at room temperature for 1 hour, and then washed four times. Thereafter, 50 μl of a 1-Step Ultra TMB-ELISA substrate solution (Thermo Fisher Scientific, 34028) was added to develop color, and then added with 50 μl each of 2 M H₂SO₄ to terminate the reaction, and then analyzed using an Epoch microplate spectrophotometer (BioTek)."}, "[6]": {"target": "T3, ATZ (L)-Y8_H57N: ICOS-L Y8_H57N variant fused to the light chain of Atezolizumab with LALAPG mutation in the … (Homo sapiens (Human), UniProt O75144 19-256)", "T3 construct": "Antibody-ligand fusion; ICOS-L at the C-terminal of the light chain; not shown: Atezolizumab light chain (VL plus constant region), atezolizumab heavy chain with LALAPG, and any linker", "T3 sequence": "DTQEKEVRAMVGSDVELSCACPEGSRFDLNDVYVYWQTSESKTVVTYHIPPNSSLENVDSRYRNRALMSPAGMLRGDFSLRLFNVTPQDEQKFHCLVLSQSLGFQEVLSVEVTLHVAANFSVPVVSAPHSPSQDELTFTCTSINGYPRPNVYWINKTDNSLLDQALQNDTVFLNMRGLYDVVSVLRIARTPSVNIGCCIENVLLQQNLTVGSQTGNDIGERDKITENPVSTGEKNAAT", "assay": "sandwich ELISA, PD-L1-Fc coated at 40 nM, atezolizumab fusion captured at 200 nM, His-tagged ICOS monomer titrated, anti-His-HRP", "description": "as §2"}, "[7]": {"target": "T4, ICOS-L variant Y8 fused to antibody Fc domain (LALAPG) (human, UniProt O75144 19-256)", "T4 construct": "also called Y8-Fc; not shown: human IgG1 Fc with L234A/L235A/P329G C-terminal to ICOS-L", "T4 chain": "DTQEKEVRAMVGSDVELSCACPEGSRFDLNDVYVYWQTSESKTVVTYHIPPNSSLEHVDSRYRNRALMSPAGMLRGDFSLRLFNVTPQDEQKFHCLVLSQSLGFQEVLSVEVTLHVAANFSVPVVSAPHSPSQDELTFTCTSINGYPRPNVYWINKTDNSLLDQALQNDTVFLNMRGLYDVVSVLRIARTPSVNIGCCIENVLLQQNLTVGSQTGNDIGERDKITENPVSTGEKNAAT", "assay": "ELISA, ICOS-L-Fc coated at 4 ug/ml, His-tagged ICOS monomer titrated, anti-His-HRP", "description": "as §1"}},
  "data": [
    {"binder": "A184 (ligand, Soluble form without Fc; the Fc and atezolizumab fusions are m12, m15 and m18; also called control A184) single chain: DTQEKEVRAMVGSDVELSCACPEGSRFDLNDVYVYWQTSESKTVVTYHIPQHSSLEYVDSRYRNRALMSPAGMLRGDFSLRLFNVTPQDEQKFHCLVLSPSLGFQEVLSVEVTLHVAANFSVPVVSAPHSPSQDELTFTCTSINGYPRPNVYWINKTDNSLLDQALQNDTVFLNMRGLYDVVSVLRIARTPSVNIGCCIENVLLQQNLTVGSQTGNDIGERDKITENPVSTGEKNAAT", "values": [
      {"measurement": "Kd", "setting": "[1]", "result": 23.1, "unit": "nM"},
      {"measurement": "EC50 (read off the curve)", "setting": "[2]", "result": "~20", "unit": "nM"},
      {"measurement": "INCREASED MULTIPLE", "setting": "[3]", "result": 4.89}
    ]},
    {"binder": "B1", "values": [
      {"measurement": "Kd", "setting": "ICOS-L variant Y8_H57N", "result": 4.75, "unit": "nM"},
      {"measurement": "Kd", "setting": "ICOS-L variant Y8_P51Q", "result": 23.3, "unit": "nM"},
      {"measurement": "Kd", "setting": "wild-type ICOS-L", "result": 113, "unit": "nM"}
    ]},
    {"binder": "ICOS-L variant Y8 (ligand) DTQEKEVRAMVGSDVELSCACPEGSRFDLNDVYVYWQTSESKTVVTYHIPPNSSLEHVDSRYRNRALMSPAGMLRGDFSLRLFNVTPQDEQKFHCLVLSQSLGFQEVLSVEVTLHVAANFSVPVVSAPHSPSQDELTFTCTSINGYPRPNVYWINKTDNSLLDQALQNDTVFLNMRGLYDVVSVLRIARTPSVNIGCCIENVLLQQNLTVGSQTGNDIGERDKITENPVSTGEKNAAT", "values": [
      {"measurement": "Kd", "setting": "[1]", "result": 1.19, "unit": "nM"},
      {"measurement": "EC50 (read off the curve)", "setting": "[4]", "result": "~4", "unit": "nM"},
      {"measurement": "EC50 (read off the curve)", "setting": "[2]", "result": "~6", "unit": "nM"},
      {"measurement": "INCREASED MULTIPLE", "setting": "[3]", "result": 95}
    ]},
    {"binder": "B2", "values": [
      {"measurement": "EC50 (read off the curve)", "setting": "[4]", "result": "~10", "unit": "nM"},
      {"measurement": "INCREASED MULTIPLE", "setting": "[3]", "result": 23.8}
    ]},
    {"binder": "B3", "values": [
      {"measurement": "INCREASED MULTIPLE", "setting": "[3]", "result": 4.85}
    ]},
    {"binder": "ICOS monomer protein (ICOS E21-H129) (receptor, human, UniProt Q9Y6W8 21-129, looked up, range 21-129; also called wild-type ICOS) EINGSANYEMFIFHNGGVQILCKYPDIVQQFKMQLLKGGQILCDLTKTKGSGNTVSIKSLKFCHSQLSNNSVSFFLYNLDHSHANYYFCNLSIFDPPPFKVTLTGGYLH", "values": [
      {"measurement": "EC50 (read off the curve)", "setting": "[5]", "result": "~5", "unit": "nM"},
      {"measurement": "EC50 (read off the curve)", "setting": "[6]", "result": "~9", "unit": "nM"},
      {"measurement": "EC50 (read off the curve)", "setting": "[7]", "result": "~4", "unit": "nM"}
    ]}
  ]
}
